Measurements as given in the RNAGym collection of RNA variant scans (doi:10.7554/elife.90254).

B1: LINE1-mini (parent)
chain: GGCAGAGCUCAACACAGCGUGGCAAAGUGGCUGUGGCUAGACUGCC

Variants of: B1
Assay: self-cleavage, relative activity (ratio to wild type); higher = more cleavage; in vitro, sequencing; the parent is a self-cleaving ribozyme

In order of falling self-cleavage:
1. C23A G30C  2.68
2. A24G G30U  2.49
3. C23U G30C  2.32
4. C23G G30C  2.06
5. C23U G30A  2.05
6. A24U A39U  1.99
7. C23G G30A  1.88
8. A24G C46A  1.75
9. A24U A25C  1.63
10. C23G A26U  1.62
11. C23U C46G  1.58
12. A24U A25U  1.48
13. A24G C45A  1.47
14. A24U  1.42
15. C23U C46A  1.4
16. C23U C46U  1.39
17. C23U G30U  1.38
18. C23U U28C  1.37
19. A24U A26U  1.34
20. C23A G30A  1.34
21. A24G A39U  1.31
22. A24G A25U  1.3
23. A24U A25G  1.28
24. A24G A26U  1.28
25. A24G C45U  1.23
26. C23G G27U  1.17
27. C23U A25G  1.17
28. C23A G30U  1.16
29. A24G G30C  1.12
30. C23U G29A  1.11
31. A24G G30A  1.11
32. A24C A39C  1.1
33. A24G  1.1
34. C23U C45U  1.09
35. C23U G27A  1.07
36. C23G C46A  1.07
37. A24G G29U  1.07
38. A24G A26C  1.06
39. C23U  1.03
40. A24C G29A  1.02
41. C23G G29A  1.01
42. A24C A25U  1.01
43. C23G C46U  1
44. C23G A25G  1
45. A24G G44A  1
46. C23U A26U  0.99
47. A24G G27A  0.98
48. C23G C45U  0.97
49. C23G G27A  0.95
50. A24G U28A  0.94
51. C23U U38C  0.93
52. A24G C46U  0.93
53. C23U A25U  0.93
54. A24U C45U  0.91
55. C23A G29A  0.91
56. C23U C42U  0.91
57. A24G G27C  0.9
58. C23G U28G  0.89
59. A24C A25G  0.89
60. C23U A39U  0.89
61. C23U A24G  0.88
62. C23G A26C  0.88
63. C23A G29U  0.88
64. C23U A26G  0.88
65. C23G A24G  0.88
66. C23A U28C  0.88
67. A24C G29U  0.87
68. C23U G27U  0.87
69. C23U A25C  0.86
70. C23U G29U  0.85
71. C23U A24U  0.84
72. C23G  0.84
73. A24U A26G  0.84
74. A24G C46G  0.83
75. C23U U28A  0.82
76. C23A G27C  0.81
77. A24G G29A  0.8
78. C23G C45A  0.79
79. A24C G30U  0.79
80. C23A G33A  0.78
81. C23A U34C  0.78
82. C23A U28A  0.78
83. C23G C45G  0.77
84. A24C G27C  0.77
85. A24C G27A  0.77
86. C23G A26G  0.76
87. A24G U38A  0.76
88. C23G G30U  0.75
89. A24G A25G  0.75
90. C23G A24U  0.75
91. C23U G27C  0.73
92. A24C A25C  0.73
93. C23A G27U  0.72
94. A24G U28C  0.72
95. C23G A25U  0.72
96. C23U A24C  0.71
97. A24G U38C  0.71
98. A24C  0.71
99. A24C G30A  0.71
100. C23G U28A  0.7
101. A24C C45U  0.7
102. A24C U28C  0.69
103. C23G A25C  0.69
104. C23G A39U  0.69
105. A24G A41U  0.67
106. C23G U28C  0.66
107. A24G G44C  0.66
108. A24C C46U  0.64
109. C23U G44A  0.64
110. C23U A26C  0.64
111. C23U U34C  0.62
112. A24U A41U  0.61
113. C23U U32C  0.61
114. C23A G44A  0.61
115. C23G C46G  0.6
116. A24C U28A  0.6
117. A24G A41G  0.6
118. C23U U28G  0.6
119. A24G G27U  0.57
120. C23U A41U  0.57
121. A24C G27U  0.55
122. A24C G29C  0.54
123. C23G A41U  0.53
124. C23A U38C  0.52
125. A24U A41G  0.52
126. C23U G29C  0.52
127. C23U A41G  0.51
128. C23U C45G  0.51
129. C23A G44C  0.51
130. A24G A26G  0.5
131. A24C G30C  0.49
132. A24G G29C  0.48
133. A24C G36A  0.48
134. C23U G44C  0.48
135. C23G G29U  0.47
136. C23A U32C  0.47
137. C23U U38A  0.47
138. C23U C31U  0.47
139. C23G C42U  0.47
140. C23U C45A  0.47
141. A24C G44C  0.47
142. A24G U28G  0.45
143. C23A U28G  0.44
144. C23U U43C  0.43
145. A24C A26U  0.43
146. C23G U38C  0.42
147. A24G C42U  0.41
148. C23G G44A  0.41
149. C23G A24C  0.41
150. A24U C42U  0.4
151. C23A G29C  0.39
152. C23G A41G  0.37
153. A24C U43G  0.37
154. C23U U32G  0.36
155. A24C U28G  0.35
156. A24C A26G  0.33
157. C23G U34C  0.32
158. A24C C46A  0.32
159. C23G U38A  0.32
160. C23U G44U  0.32
161. C23G G33A  0.32
162. A24C U38C  0.31
163. A24U C45A  0.31
164. A24C U38A  0.3
165. A24U C45G  0.3
166. C23U U34G  0.3
167. C23U A39C  0.29
168. A24G C31U  0.29
169. C23A U38A  0.28
170. C23G U32C  0.28
171. C23U U34A  0.28
172. C23A G44U  0.28
173. A24C A26C  0.28
174. A24C C46G  0.27
175. A24G A39C  0.27
176. C23G G27C  0.27
177. A24C A41U  0.26
178. C23G G29C  0.26
179. A24C A41G  0.25
180. A24C A39U  0.25
181. A24U C31U  0.25
182. C23U C42A  0.25
183. C23U C31A  0.24
184. C23A U34A  0.24
185. C23G U43C  0.24
186. A24G U32C  0.24
187. C23G U34G  0.23
188. C23A G35A  0.23
189. A24U A39C  0.23
190. C23A U32G  0.22
191. C23A G35U  0.22
192. C23A U34G  0.22
193. A24G C45G  0.22
194. C23G U32G  0.21
195. C23A G33U  0.2
196. C23G C31U  0.2
197. A24G U43C  0.2
198. C23U U32A  0.2
199. C23G G44C  0.2
200. A24G C42A  0.19
201. A24G U43G  0.19
202. C23U G35A  0.19
203. C23G C42A  0.19
204. A24U C42A  0.18
205. A24G G40C  0.18
206. A24C G44A  0.18
207. A24G G35C  0.17
208. A24G G36A  0.17
209. C23A G36A  0.17
210. C23U C31G  0.16
211. A24C C45A  0.16
212. A24C C45G  0.16
213. C23U G33U  0.16
214. C23G G44U  0.16
215. C23U G35U  0.16
216. A24G G40U  0.16
217. C23G G33U  0.16
218. C23A G40C  0.15
219. A24C C42A  0.15
220. C23U G33A  0.15
221. A24G C31A  0.15
222. A24G G44U  0.15
223. C23G G35A  0.14
224. C23A G40U  0.14
225. C23A G40A  0.14
226. C23G G40U  0.14
227. A24G U34G  0.14
228. C23G G36A  0.14
229. C23A G35C  0.14
230. A24G U32A  0.14
231. A24G U32G  0.14
232. C23U G36A  0.14
233. A24U A39G  0.14
234. A24C U32G  0.13
235. C23G G40C  0.13
236. A24C C42U  0.13
237. A24G G35U  0.13
238. A24G G40A  0.13
239. A24C G44U  0.13
240. C23G G35C  0.12
241. A24C U34C  0.12
242. C23U G40A  0.12
243. C23U G40C  0.12
244. A24C C31U  0.12
245. A24G G35A  0.12
246. C23G G35U  0.11
247. C23A U32A  0.11
248. C23G G36C  0.11
249. C23U G40U  0.11
250. A24G U43A  0.11
251. A24C G40U  0.11
252. A24G G36C  0.11
253. A24G U34C  0.1
254. A24G C37G  0.1
255. A24C U43C  0.1
256. A24C G36C  0.1
257. A24C G36U  0.1
258. C23U A39G  0.1
259. C23U G35C  0.1
260. C23A U43A  0.1
261. A24G G36U  0.1
262. C23G U34A  0.09
263. A24G U34A  0.09
264. A24G C37A  0.09
265. C23G C31A  0.09
266. C23U C42G  0.09
267. A24C G35A  0.09
268. C23G A39G  0.09
269. A24C U32A  0.08
270. A24U C31G  0.08
271. A24G G33U  0.08
272. C23G U43A  0.08
273. C23A U43C  0.08
274. A24C U34A  0.07
275. A24C A39G  0.07
276. C23G G40A  0.07
277. C23G U32A  0.07
278. A24G A39G  0.07
279. A24U A41C  0.07
280. C23G G36U  0.07
281. A24U C31A  0.07
282. C23G C31G  0.07
283. A24C G40A  0.07
284. A24G G33A  0.07
285. C23U G36C  0.07
286. A24U C37U  0.07
287. C23U U43A  0.07
288. C23G A39C  0.07
289. C23A G36C  0.07
290. C23U A41C  0.06
291. A24G C42G  0.06
292. A24C C37U  0.06
293. A24C C31A  0.06
294. A24U C42G  0.06
295. A24C G35C  0.06
296. A24G G33C  0.06
297. A24C G33A  0.06
298. C23A G36U  0.06
299. A24C U34G  0.05
300. A24C U32C  0.05
301. C23A G33C  0.05
302. A24G C37U  0.05
303. A24C C42G  0.05
304. C23U G33C  0.05
305. A24C G40C  0.05
306. A24C G35U  0.05
307. A24G C31G  0.05
308. A24U C37G  0.05
309. A24U C37A  0.05
310. A24C A41C  0.04
311. C23U C37A  0.04
312. C23U C37U  0.04
313. C23G A41C  0.04
314. C23U U38G  0.04
315. C23G C37A  0.04
316. A24G A41C  0.04
317. C23U G36U  0.04
318. A24C G33U  0.04
319. A24C G33C  0.04
320. A24G U38G  0.03
321. A24C C37A  0.03
322. A24C C31G  0.03
323. C23G C42G  0.03
324. C23U U43G  0.03
325. C23G G33C  0.03
326. C23A U38G  0.02
327. C23U C37G  0.02
328. A24C U43A  0.02
329. C23G C37U  0.02
330. C23G U38G  0.02
331. A24C C37G  0.02
332. C23A U43G  0.02
333. A24C U38G  0.01
334. C23G C37G  0.01
